Results: patent US20020160955A1 (published 2002)

Experiments:
Assay in all cases: BIACORE; KD mut/KD wt
[1] = target: IGF-I G1S-A70V (purified, soluble) (human, UniProt P05019 50-117)
Procedure: (§1) Carboxymethylated dextran biosensor chips (CM5, BIAcore Inc.) were activated with EDC (N-ethyl-N′-(3-dimethylaminopropyl)-carbodiimide hydrochloride) and NHS (N-hydroxysuccinimide) according to the supplier's instructions. For immobilization, IGF mutants in 20 mM sodium acetate, pH 4.8, were injected onto the biosensor chip at a concentration of 50 μg/ml to yield approximately 450-600 RU's (resonance-response units) of covalently-coupled protein. Unreacted groups were blocked with an injection of 1 M ethanolamine. […] Association rates (kₐ) and dissociation rates (kd) were calculated separately using a 1:1 Langmuir™ association model in the BIACORE™ evaluation software v. 3.0. The equilibrium dissociation constant (KD) was calculated as kd/kₐ.

[2] = target: T1, wild-type human IGF-I (purified, soluble) (human, UniProt P05019 49-118)
T1 construct: immobilized on the biosensor chip by amine coupling in BIACORE experiments; also called IGF-I WT
T1 sequence (P05019 49-118): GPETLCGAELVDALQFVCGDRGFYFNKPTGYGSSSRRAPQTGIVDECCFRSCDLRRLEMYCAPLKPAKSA
Procedure: as §1

[3] = target: T2, F49A IGF-I (purified, soluble) (human, UniProt P05019 49-118)
T2 construct: made from the wild-type template pBKIGF2B-f1-ori; also called F49A IGF variant
T2 sequence (P05019 49-118 F97A): as the sequence (P05019 49-118) above, with F49A counted along it
Procedure: as §1

[4] = target: T3, IGF-I F16A (purified, soluble) (human, UniProt P05019 49-118)
T3 construct: made from the wild-type template pBKIGF2B-f1-ori; also called IGF-F16A; FI6A
T3 sequence (P05019 49-118 F64A): as the sequence (P05019 49-118) above, with F16A counted along it
Procedure: as §1

[5] = target: T4, IGF-I P39A (purified, soluble) (human, UniProt P05019 49-118)
T4 construct: made from the wild-type template pBKIGF2B-f1-ori
T4 sequence (P05019 49-118 P87A): as the sequence (P05019 49-118) above, with P39A counted along it
Procedure: as §1

[6] = target: T5, IGF-I F25A (purified, soluble) (human, UniProt P05019 49-118)
T5 construct: made from the wild-type template pBKIGF2B-f1-ori
T5 sequence (P05019 49-118 F73A): as the sequence (P05019 49-118) above, with F25A counted along it
Procedure: as §1

[7] = target: T6, IGF-I V11A (purified, soluble) (human, UniProt P05019 49-118)
T6 construct: made from the wild-type template pBKIGF2B-f1-ori
T6 sequence (P05019 49-118 V59A): as the sequence (P05019 49-118) above, with V11A counted along it
Procedure: as §1

[8] = target: T7, IGF-I R36A (purified, soluble) (human, UniProt P05019 49-118)
T7 construct: made from the wild-type template pBKIGF2B-f1-ori
T7 sequence (P05019 49-118 R84A): as the sequence (P05019 49-118) above, with R36A counted along it
Procedure: as §1

[9] = target: T8, IGF-I T4A (purified, soluble) (human, UniProt P05019 49-118)
T8 construct: made from the wild-type template pBKIGF2B-f1-ori
T8 sequence (P05019 other isoform, or with tags, fused parts or gaps): as the sequence (P05019 49-118) above, with T4A counted along it
Procedure: as §1

IGF-I G1S-A70V (purified, soluble), sequence (P05019 other isoform, or with tags, fused parts or gaps A70V A70V): as the sequence (P05019 49-118) above, with G1S, A70V counted along it

B1: human IGFBP-1 (other, UniProt P08833 26-259, looked up)
chain: APWQCAPCSAEKLALCPPVSASCSEVTRSAGCGCCPMCALPLGAACGVATARCARGLSCRALPGEQQPLHALTRGQGACVQESDASAPHAAEAGSPESPESTEITEEELLDNFHLMAPSEEDHSILWDAISTYDGSKALHVTNIKKWKEPCRIELYRVVESLAKAQETSGEEISKFYLPNCNKNGFYHSRQCETSMDGEAGLCWCVYPWNGKRIPGSPEIRGDPNCQIYFNVQN
notes: secreted recombinant protein purified from conditioned medium
**Q.** How did the “relative KD” value [1] turn out when B1 was run?
**A.** 1.1

**Q.** And the “relative KD” value [2]?
**A.** 1

**Q.** And the “relative KD” value [3]?
**A.** 70

**Q.** And the “relative KD” value [4]?
**A.** 25

**Q.** What about the “relative KD” value [5] of the same binder?
**A.** 1

**Q.** And the “relative KD” value [6]?
**A.** 25

**Q.** And the “relative KD” value [7]?
**A.** 5.1

**Q.** And the “relative KD” value [8]?
**A.** 1.1

**Q.** What about the “relative KD” value [9] of the same binder?
**A.** 6.9
